Source: US20120045393A1 (priority 2009, published 2012)
Non-standard residues stand in square brackets, D forms with d. Primed or numbered codes have the meaning given here. azaGly′ = aza-glycine residue at the C-terminus, with NH2; Bpa = N[C@@H](Cc1ccc(C(=O)c2ccccc2)cc1)C(=O)O; d2Nal = N[C@H](Cc1ccc2ccccc2c1)C(=O)O; DO3A10CM = not defined here; Bpa4 = non-natural residue; Damfe4 = not defined here; Ahgly = not defined here; Ampa4 = not defined here; Ampc4 = not defined here; Ampg4 = not defined here; Hypt4 = not defined here; Mogly = not defined here; Ppt4 = not defined here; azaGly = NNC(=O)O

How the values were obtained:
EFO-27 cells = assay: Internalization/efflux studies in EFO-27 cells; format: cell-based, human
Protocol: Internalization/Efflux Studies: The internalization and efflux studies were carried out following the general procedure. Basically, ^177Lu-LHRH II or ^125I-LHRH II ([^125I-Tyr^8]BRU-2477) (75 uL, 3.0 μCi/mL) was added to the EFO-27 or PC-3 cells. The cells were incubated for 40 min at 37° C. The unbound radioactivity was washed off (4×). Following addition of fresh medium, the cells were further incubated for up to 2 h. At various time points (15, 30, 60 & 120 min) the distribution of radioactivity (membrane-bound, internalized, and efflux) was determined
The internalization and efflux of several Lu-177 labeled LHRH II analogs in EFO-27 cells have been investigated. Basically, following pre-incubation of cells with ^177Lu-LHRH II samples, the binding buffer containing the ^177Lu was replaced with fresh media without complex. The extent of initial internalization (T=0), the amount of radioactive material that remained internalized and the efflux at 0-120 min were determined. The results are shown in FIGS. 21a-f and 22a-c and in Table 25.

[1] = system: LHRH binding sites on human ovarian cancer cells (EFO-27);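 further: Cell-associated radioactivity on confluent EFO-27 monolayers in 96-well plates, measured by microplate scintillation counting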
[2] = molecular target: LHRH binding sites on EFO-27 human ovarian cancer cells (human); assay: competition with [125I-Tyr8]BRU-2477 on EFO-27 cells
[3] = molecular target: LHRH receptor (LHRH binding sites) on EFO-27 human ovarian cancer cells (human); assay: competition with [125I-Tyr8]BRU-2477, EFO-27 cells

N=C(N)NCCC[C@@H](NC(=O)[C@H](Cc1c[nH]cn1)NC(=O)[C@H](CO)NC(=O)[C@H](Cc1c[nH]c2ccccc12)NC(=O)[C@H](Cc1c[nH]cn1)NC(=O)[C@@H](Cc1ccc2ccccc2c1)NC(=O)CN1CCN(CC(=O)O)CCN(CC(=O)O)CCN(CC(=O)O)CC1)C(=O)N[C@@H](Cc1c[nH]c2ccccc12)C(=O)N[C@@H](Cc1ccc(C(=O)c2ccccc2)cc1)C(=O)N1CCC[C@H]1C(=O)NNC(N)=O [BRU-2666]
Cell associated activity at 0 h % Efflux (EFO-27 cells; 0 h): 5.5% | Cell associated activity at 0 h % Intern (EFO-27 cells; 0 h, internalized): 43.6% | Cell associated activity at 0 h % Memb (EFO-27 cells; 0 h, membrane bound): 50.3% | Cell associated activity at 2 h % Efflux (EFO-27 cells; 2 h): 80.6% | Cell associated activity at 2 h % Intern (EFO-27 cells; 2 h, internalized): 10.0% | Cell associated activity at 2 h % Memb (EFO-27 cells; 2 h, membrane bound): 9.5% | Bound % (EFO-27 cells; of added): 12.20% | Bound (EFO-27 cells; per well): 25.0 fmol | EC50 [1]: 470 nM | times more potent than the comparator analog ([1]; BRU-2441 vs BRU-2439, BRU-2666 vs Sar1 analog, BRU-3072 vs Pro9 analog): 2

B1: BRU-3059 (peptide)
peptide: DO3A10CM-[d2Nal][Ampa4]WSH[dR]W[Bpa]P[azaGly′]-NH2
modifications: not fully specified; printed as DO3A10CM-Dnal2-Ampa4-Trp-Ser-His-Darg-Trp-Bpa4-Pro-azaGly-NH2; reading uncertain
EC50 [2]: 410 nM | EC50 [3]: 410 nM

B2: BRU-3060 (peptide)
peptide: DO3A10CM-[d2Nal][Ampg4]WSH[dR]W[Bpa]P[azaGly′]-NH2
modifications: not fully specified; printed as DO3A10CM-Dnal2-Ampg4-Trp-Ser-His-Darg-Trp-Bpa4-Pro-azaGly-NH2; reading uncertain
EC50 [2]: 340 nM | EC50 [3]: 340 nM

DO3A10CM-[d2Nal]RWSH[dR]W[Bpa4]PGR-NH2 (reading uncertain) [BRU-2969]
EC50 [2]: 240 nM | EC50 [3]: 240 nM

DO3A10CM-[d2Nal]RWSH[dR]W[Bpa]PGQ-NH2 (reading uncertain; also: printed as DO3A10CM-Dnal2-Arg-Trp-Ser-His-Darg-Trp-Bpa4-Pro-Gly-Gln-NH2) [BRU-2971]
EC50 [2]: 490 nM | EC50 [3]: 490 nM

XRWSHXWXP (N-terminal DO3A10CM; Dnal2 at 1; Darg at 6; Bpa4 at 8; C-terminal Pheol at 10) [BRU-2983]
EC50 [2]: 450 nM | EC50 [3]: 450 nM

XRWSHXWXP (N-terminal DO3A10CM; Dnal2 at 1; Darg at 6; Bpa4 at 8; C-terminal Gua (guanidine) at 10) [BRU-2984]
EC50 [2]: 400 nM | EC50 [3]: 400 nM

B3: BRU-2985 (peptide)
peptide: XRWSHXWXP
modifications: not fully specified; DO3A10CM on N-terminus; AA1 Dnal2; AA6 Darg; AA8 Bpa4; AA10 A1guao3pt
EC50 [2]: 460 nM | EC50 [3]: 460 nM

XRWSHXWXP (N-terminal DO3A10CM; Dnal2 at 1; Darg at 6; Bpa4 at 8; C-terminal Ap (aminophenyl) at 10) [BRU-3006]
EC50 [2]: 420 nM | EC50 [3]: 420 nM

XRWSHXWXP (Sar at 1; Darg at 6; Bpa4 at 8; C-terminal Da15o3pt at 10) [BRU-3007]
EC50 [2]: 220 nM | EC50 [3]: 220 nM

XRWSHXWXP (N-terminal DO3A10CM; Dnal2 at 1; Darg at 6; Bpa4 at 8; C-terminal Mo2abn at 10) [BRU-3020]
EC50 [2]: 450 nM | EC50 [3]: 450 nM

XRWSHXWXP (N-terminal DO3A10CM; Dnal2 at 1; Darg at 6; Bpa4 at 8; C-terminal Az23m2po-NH2 at 10) [BRU-3021]
EC50 [2]: 500 nM | EC50 [3]: 500 nM

B4: BRU-2439 (peptide)
peptide: XHWSHXWYPX
HELM: PEPTIDE1{[Sar].H.W.S.H.[dR].W.Y.P.[O=C(NN[*:1])[*:2]].[am]}$$$$V2.0; N-terminus assumed
SMILES: CNCC(=O)N[C@@H](Cc1c[nH]cn1)C(=O)N[C@@H](Cc1c[nH]c2ccccc12)C(=O)N[C@@H](CO)C(=O)N[C@@H](Cc1c[nH]cn1)C(=O)N[C@H](CCCNC(=N)N)C(=O)N[C@@H](Cc1c[nH]c2ccccc12)C(=O)N[C@@H](Cc1ccc(O)cc1)C(=O)N1CCC[C@H]1C(=O)NNC(N)=O
EC50 [2]: 250 nM | EC50 [3]: 250 nM

DO3A10CM-G[Mogly]HWSH[dR]W[Bpa]P[azaGly]-NH2 (reading uncertain) [BRU-2796]
EC50 [2]: 340 nM | EC50 [3]: 340 nM

DO3A10CM-G[Ahgly]HWSH[dR]W[Bpa]P[azaGly]-NH2 (reading uncertain) [BRU-2876]
EC50 [2]: 500 nM | EC50 [3]: 500 nM

DO3A10CM-[d2Nal]RWSH[dR]W[Bpa4][Hypt4][azaGly]-NH2 (reading uncertain) [BRU-2952]
EC50 [2]: 280 nM | EC50 [3]: 280 nM

DO3A10CM-[d2Nal]RWSH[dR]W[Bpa4][Ppt4][azaGly]-NH2 (reading uncertain) [BRU-2953]
EC50 [2]: 650 nM | factor of reduced binding against BRU-2813 [2]: 2 fold | EC50 [3]: 830 nM

DO3A10CM-[d2Nal]RWSH[dR]W[Bpa][Ampc4][azaGly′]-NH2 (reading uncertain; also: printed as DO3A10CM-Dnal2-Arg-Trp-Ser-His-Darg-Trp-Bpa4-Ampc4-azaGly-NH2) [BRU-3062]
EC50 [2]: 320 nM | EC50 [3]: 320 nM

B5: BRU-2955 (peptide)
peptide: XRWXHXWXPX
modifications: DO3A10CM on N-terminus; AA1 Dnal2; AA4 Dpr (Dap in Table 26); AA6 Darg; AA8 Bpa4; AA10 azaGly-NH2
EC50 [2]: 410 nM | EC50 [3]: 410 nM

B6: BRU-3115 (peptide)
peptide: XRWXHXWXPX
modifications: DO3A10CM on N-terminus; AA1 Dnal2; AA4 Amfe4; AA6 Darg; AA8 Bpa4; AA10 azaGly-NH2
EC50 [2]: 150 nM | EC50 [3]: 150 nM

XRWSRXWXPX (N-terminal DO3A10CM; Dnal2 at 1; Darg at 6; Bpa4 at 8; azaGly-NH2 at 10) [BRU-2959]
EC50 [2]: 250 nM | EC50 [3]: 250 nM

B7: BRU-2960 (peptide)
peptide: XRWSXXWXPX
modifications: DO3A10CM on N-terminus; AA1 Dnal2; AA5 Fur3ala; AA6 Darg; AA8 Bpa4; AA10 azaGly-NH2
EC50 [2]: 400 nM | EC50 [3]: 400 nM

XRWSXXWXPX (N-terminal DO3A10CM; Dnal2 at 1; Orn at 5; Darg at 6; Bpa4 at 8; azaGly-NH2 at 10) [BRU-2961]
EC50 [2]: 350 nM | EC50 [3]: 350 nM

B8: BRU-3104 (peptide)
peptide: XRXSHXWXPX
modifications: DO3A10CM on N-terminus; AA1 Dnal2; AA3 Nal1; AA6 Darg; AA8 Bpa4; AA10 azaGly-NH2
EC50 [2]: 250 nM | EC50 [3]: 250 nM

B9: BRU-3105 (peptide)
peptide: XRXSHXWXPX
modifications: DO3A10CM on N-terminus; AA1 Dnal2; AA3 Nal2; AA6 Darg; AA8 Bpa4; AA10 azaGly-NH2
EC50 [2]: 220 nM | EC50 [3]: 220 nM

B10: BRU-3107 (peptide)
peptide: XRXSHXWXPX
modifications: DO3A10CM on N-terminus; AA1 Dnal2; AA3 Amfe4; AA6 Darg; AA8 Bpa4; AA10 azaGly-NH2
EC50 [2]: 380 nM | EC50 [3]: 380 nM

XHWSHXWXPX (Mephe at 1; Darg at 6; Bpa4 at 8; azaGly-NH2 at 10) [BRU-2734]
EC50 [2]: 150 nM | EC50 [3]: 150 nM

B11: BRU-3068 (peptide)
peptide: GXRWSHXWXPX
modifications: DO3A10CM-Gly (linker) on N-terminus; AA1 Dtpi; AA6 Darg; AA8 Bpa4; AA10 azaGly-NH2
EC50 [2]: 240 nM | EC50 [3]: 240 nM

XRWSHXWXPX (N-terminal DO3A10CM; Bip at 1; Darg at 6; Bpa4 at 8; azaGly-NH2 at 10) [BRU-3070]
EC50 [2]: 280 nM | EC50 [3]: 280 nM

DO3A10CM-[Damfe4][Damfe4]WSH[dR]W[Bpa]P[azaGly]-NH2 (reading uncertain) [BRU-3095]
EC50 [2]: 290 nM | EC50 [3]: 290 nM

XRWSHXWXPX (N-terminal DO3A10CM; Dbpa4 at 1; Darg at 6; Bpa4 at 8; azaGly-NH2 at 10) [BRU-3071]
EC50 [2]: 310 nM | EC50 [3]: 310 nM

B12: BRU-3053 (peptide)
peptide: GXRWSHXWXPX
modifications: DO3A10CM-Gly (linker) on N-terminus; AA1 Tpi; AA6 Darg; AA8 Bpa4; AA10 azaGly-NH2
EC50 [2]: 320 nM | EC50 [3]: 320 nM

XRWSHXWXPX (N-terminal DO3A10CM; Ampha4 at 1; Darg at 6; Bpa4 at 8; azaGly-NH2 at 10) [BRU-3094]
EC50 [2]: 350 nM | EC50 [3]: 350 nM

B13: BRU-3049 (peptide)
peptide: XXWSHXWXPX
modifications: DO3A10CM on N-terminus; AA1 Dnal2; AA2 Darg; AA6 Darg; AA8 Bpa4; AA10 azaGly-NH2
EC50 [2]: 360 nM | EC50 [3]: 360 nM

XRWSHXWXPX (N-terminal DO3A10CM; Qua3 at 1; Darg at 6; Bpa4 at 8; azaGly-NH2 at 10) [BRU-3057]
EC50 [2]: 380 nM | EC50 [3]: 380 nM

XRWSHXWXPX (N-terminal DO3A10CM; Thy at 1; Darg at 6; Bpa4 at 8; azaGly-NH2 at 10) [BRU-3069]
EC50 [2]: 380 nM | EC50 [3]: 380 nM

XRWSHXWXPX (N-terminal DO3A10CM; Atdc2 at 1; Darg at 6; Bpa4 at 8; azaGly-NH2 at 10) [BRU-3055]
EC50 [2]: 390 nM | EC50 [3]: 390 nM

XRWSHXWXPX (N-terminal DO3A10CM; Dtyr at 1; Darg at 6; Bpa4 at 8; azaGly-NH2 at 10) [BRU-3054]
EC50 [2]: 430 nM | EC50 [3]: 430 nM

XRWSHXWXPX (N-terminal DO3A10CM; Apsp at 1; Darg at 6; Bpa4 at 8; azaGly-NH2 at 10) [BRU-3056]
EC50 [2]: 440 nM | EC50 [3]: 440 nM

XRWSHXWXPX (N-terminal DO3A10CM; Datdc2 at 1; Darg at 6; Bpa4 at 8; azaGly-NH2 at 10) [BRU-3063]
EC50 [2]: 470 nM | EC50 [3]: 470 nM
